In patent US12679878B2, “CRF2 receptor agonists and their use in therapy” (SANOFI, priority 2020, dated 2026):
Starred links: 1 amine or outer side, 2 acyl side, 3 side chain; linkers in the order of their positions; H or OH if unused. Non-standard residues stand in square brackets, D forms with d. Groups on a side chain read outwards from the residue. No end group written: not given here. *: point of attachment. C18 diacid = O=C(O)CCCCCCCCCCCCCCCCC(=O)*; γGlu = O=C(O)[C@H](CCC(=O)[*:2])N[*:1]; Palmitoyl = CCCCCCCCCCCCCCCC(=O)*; AEEA = NCCOCCOCC(=O)O; Aib = CC(C)(N)C(=O)O

target: human corticotropin-releasing factor 2α (CRF2 α receptor) (human), Q13324; test: cell-based or functional assay
Sequence (Q13324 20-411): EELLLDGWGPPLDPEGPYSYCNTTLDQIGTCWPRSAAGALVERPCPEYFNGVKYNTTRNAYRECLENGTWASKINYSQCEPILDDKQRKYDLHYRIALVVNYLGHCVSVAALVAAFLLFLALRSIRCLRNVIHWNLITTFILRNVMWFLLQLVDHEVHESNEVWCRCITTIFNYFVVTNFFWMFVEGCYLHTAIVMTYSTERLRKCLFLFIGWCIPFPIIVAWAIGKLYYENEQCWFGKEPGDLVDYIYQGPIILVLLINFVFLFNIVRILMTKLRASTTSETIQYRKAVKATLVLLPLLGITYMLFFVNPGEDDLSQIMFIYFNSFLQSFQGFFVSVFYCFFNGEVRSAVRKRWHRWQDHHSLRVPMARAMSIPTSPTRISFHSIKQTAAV

Row | EC50 [nM], 0% HSA | EC50 [nM], 0.1% HSA | Binder
1 | 0.88 nM |  | FTLSLDVPTKIK([γGlu-Palmitoyl])QKLFKQAKQKKQRQKAKTNAQILARV-NH2 (N-terminus assumed; SMILES CCCCCCCCCCCCCCCC(=O)N[C@@H](CCC(=O)NCCCC[C@H](NC(=O)[C@@H](NC(=O)[C@H](CCCCN)NC(=O)[C@@H](NC(=O)[C@@H]1CCCN1C(=O)[C@@H](NC(=O)[C@H](CC(=O)O)NC(=O)[C@H](CC(C)C)NC(=O)[C@H](CO)NC(=O)[C@H](CC(C)C)NC(=O)[C@@H](NC(=O)[C@@H](N)Cc1ccccc1)[C@@H](C)O)C(C)C)[C@@H](C)O)[C@@H](C)CC)C(=O)N[C@@H](CCC(N)=O)C(=O)N[C@@H](CCCCN)C(=O)N[C@@H](CC(C)C)C(=O)N[C@@H](Cc1ccccc1)C(=O)N[C@@H](CCCCN)C(=O)N[C@@H](CCC(N)=O)C(=O)N[C@@H](C)C(=O)N[C@@H](CCCCN)C(=O)N[C@@H](CCC(N)=O)C(=O)N[C@@H](CCCCN)C(=O)N[C@@H](CCCCN)C(=O)N[C@@H](CCC(N)=O)C(=O)N[C@@H](CCCNC(=N)N)C(=O)N[C@@H](CCC(N)=O)C(=O)N[C@@H](CCCCN)C(=O)N[C@@H](C)C(=O)N[C@@H](CCCCN)C(=O)N[C@H](C(=O)N[C@@H](CC(N)=O)C(=O)N[C@@H](C)C(=O)N[C@@H](CCC(N)=O)C(=O)N[C@H](C(=O)N[C@@H](CC(C)C)C(=O)N[C@@H](C)C(=O)N[C@@H](CCCNC(=N)N)C(=O)N[C@H](C(N)=O)C(C)C)[C@@H](C)CC)[C@@H](C)O)C(=O)O) [SEQ ID NO: 15]
2 | 0.11 nM | 4.36 nM | FTLSLDVPIKLK([AEEA-AEEA-γGlu-C18 diacid])QILLKQERQKKQRQKAKKNKQILERV-NH2 (N-terminus assumed; SMILES CC[C@H](C)[C@H](NC(=O)[C@H](CCC(N)=O)NC(=O)[C@H](CCCCNC(=O)COCCOCCNC(=O)COCCOCCNC(=O)CC[C@H](NC(=O)CCCCCCCCCCCCCCCCC(=O)O)C(=O)O)NC(=O)[C@H](CC(C)C)NC(=O)[C@H](CCCCN)NC(=O)[C@@H](NC(=O)[C@@H]1CCCN1C(=O)[C@@H](NC(=O)[C@H](CC(=O)O)NC(=O)[C@H](CC(C)C)NC(=O)[C@H](CO)NC(=O)[C@H](CC(C)C)NC(=O)[C@@H](NC(=O)[C@@H](N)Cc1ccccc1)[C@@H](C)O)C(C)C)[C@@H](C)CC)C(=O)N[C@@H](CC(C)C)C(=O)N[C@@H](CC(C)C)C(=O)N[C@@H](CCCCN)C(=O)N[C@@H](CCC(N)=O)C(=O)N[C@@H](CCC(=O)O)C(=O)N[C@@H](CCCNC(=N)N)C(=O)N[C@@H](CCC(N)=O)C(=O)N[C@@H](CCCCN)C(=O)N[C@@H](CCCCN)C(=O)N[C@@H](CCC(N)=O)C(=O)N[C@@H](CCCNC(=N)N)C(=O)N[C@@H](CCC(N)=O)C(=O)N[C@@H](CCCCN)C(=O)N[C@@H](C)C(=O)N[C@@H](CCCCN)C(=O)N[C@@H](CCCCN)C(=O)N[C@@H](CC(N)=O)C(=O)N[C@@H](CCCCN)C(=O)N[C@@H](CCC(N)=O)C(=O)N[C@H](C(=O)N[C@@H](CC(C)C)C(=O)N[C@@H](CCC(=O)O)C(=O)N[C@@H](CCCNC(=N)N)C(=O)N[C@H](C(N)=O)C(C)C)[C@@H](C)CC) [SEQ ID NO: 146]
3 | 1.46 nM | 96.9 nM | FTLSLDVPTKIK([AEEA-AEEA-γGlu-C18 diacid])QILLKQERQKKQRQKAKKNKQILERV-NH2 (N-terminus assumed; SMILES CC[C@H](C)[C@H](NC(=O)[C@H](CCC(N)=O)NC(=O)[C@H](CCCCN)NC(=O)[C@H](CC(N)=O)NC(=O)[C@H](CCCCN)NC(=O)[C@H](CCCCN)NC(=O)[C@H](C)NC(=O)[C@H](CCCCN)NC(=O)[C@H](CCC(N)=O)NC(=O)[C@H](CCCNC(=N)N)NC(=O)[C@H](CCC(N)=O)NC(=O)[C@H](CCCCN)NC(=O)[C@H](CCCCN)NC(=O)[C@H](CCC(N)=O)NC(=O)[C@H](CCCNC(=N)N)NC(=O)[C@H](CCC(=O)O)NC(=O)[C@H](CCC(N)=O)NC(=O)[C@H](CCCCN)NC(=O)[C@H](CC(C)C)NC(=O)[C@H](CC(C)C)NC(=O)[C@@H](NC(=O)[C@H](CCC(N)=O)NC(=O)[C@H](CCCCNC(=O)COCCOCCNC(=O)COCCOCCNC(=O)CC[C@H](NC(=O)CCCCCCCCCCCCCCCCC(=O)O)C(=O)O)NC(=O)[C@@H](NC(=O)[C@H](CCCCN)NC(=O)[C@@H](NC(=O)[C@@H]1CCCN1C(=O)[C@@H](NC(=O)[C@H](CC(=O)O)NC(=O)[C@H](CC(C)C)NC(=O)[C@H](CO)NC(=O)[C@H](CC(C)C)NC(=O)[C@@H](NC(=O)[C@@H](N)Cc1ccccc1)[C@@H](C)O)C(C)C)[C@@H](C)O)[C@@H](C)CC)[C@@H](C)CC)C(=O)N[C@@H](CC(C)C)C(=O)N[C@@H](CCC(=O)O)C(=O)N[C@@H](CCCNC(=N)N)C(=O)N[C@H](C(N)=O)C(C)C) [SEQ ID NO: 145]
4 | 1.36 nM | 76.3 nM | FTLSLDVPTKIK([AEEA-AEEA-γGlu-C18 diacid])QILLKQERQKKQRQKAKTNKQILERV-NH2 (N-terminus assumed; SMILES CC[C@H](C)[C@H](NC(=O)[C@H](CCC(N)=O)NC(=O)[C@H](CCCCN)NC(=O)[C@H](CC(N)=O)NC(=O)[C@@H](NC(=O)[C@H](CCCCN)NC(=O)[C@H](C)NC(=O)[C@H](CCCCN)NC(=O)[C@H](CCC(N)=O)NC(=O)[C@H](CCCNC(=N)N)NC(=O)[C@H](CCC(N)=O)NC(=O)[C@H](CCCCN)NC(=O)[C@H](CCCCN)NC(=O)[C@H](CCC(N)=O)NC(=O)[C@H](CCCNC(=N)N)NC(=O)[C@H](CCC(=O)O)NC(=O)[C@H](CCC(N)=O)NC(=O)[C@H](CCCCN)NC(=O)[C@H](CC(C)C)NC(=O)[C@H](CC(C)C)NC(=O)[C@@H](NC(=O)[C@H](CCC(N)=O)NC(=O)[C@H](CCCCNC(=O)COCCOCCNC(=O)COCCOCCNC(=O)CC[C@H](NC(=O)CCCCCCCCCCCCCCCCC(=O)O)C(=O)O)NC(=O)[C@@H](NC(=O)[C@H](CCCCN)NC(=O)[C@@H](NC(=O)[C@@H]1CCCN1C(=O)[C@@H](NC(=O)[C@H](CC(=O)O)NC(=O)[C@H](CC(C)C)NC(=O)[C@H](CO)NC(=O)[C@H](CC(C)C)NC(=O)[C@@H](NC(=O)[C@@H](N)Cc1ccccc1)[C@@H](C)O)C(C)C)[C@@H](C)O)[C@@H](C)CC)[C@@H](C)CC)[C@@H](C)O)C(=O)N[C@@H](CC(C)C)C(=O)N[C@@H](CCC(=O)O)C(=O)N[C@@H](CCCNC(=N)N)C(=O)N[C@H](C(N)=O)C(C)C) [SEQ ID NO: 144]
5 | 1.44 nM | 93.8 nM | FTLSLDVPTKIK([AEEA-AEEA-γGlu-C18 diacid])QILLKQEKQKKQRQKAKTNKQILERV-NH2 (N-terminus assumed; SMILES CC[C@H](C)[C@H](NC(=O)[C@H](CCC(N)=O)NC(=O)[C@H](CCCCN)NC(=O)[C@H](CC(N)=O)NC(=O)[C@@H](NC(=O)[C@H](CCCCN)NC(=O)[C@H](C)NC(=O)[C@H](CCCCN)NC(=O)[C@H](CCC(N)=O)NC(=O)[C@H](CCCNC(=N)N)NC(=O)[C@H](CCC(N)=O)NC(=O)[C@H](CCCCN)NC(=O)[C@H](CCCCN)NC(=O)[C@H](CCC(N)=O)NC(=O)[C@H](CCCCN)NC(=O)[C@H](CCC(=O)O)NC(=O)[C@H](CCC(N)=O)NC(=O)[C@H](CCCCN)NC(=O)[C@H](CC(C)C)NC(=O)[C@H](CC(C)C)NC(=O)[C@@H](NC(=O)[C@H](CCC(N)=O)NC(=O)[C@H](CCCCNC(=O)COCCOCCNC(=O)COCCOCCNC(=O)CC[C@H](NC(=O)CCCCCCCCCCCCCCCCC(=O)O)C(=O)O)NC(=O)[C@@H](NC(=O)[C@H](CCCCN)NC(=O)[C@@H](NC(=O)[C@@H]1CCCN1C(=O)[C@@H](NC(=O)[C@H](CC(=O)O)NC(=O)[C@H](CC(C)C)NC(=O)[C@H](CO)NC(=O)[C@H](CC(C)C)NC(=O)[C@@H](NC(=O)[C@@H](N)Cc1ccccc1)[C@@H](C)O)C(C)C)[C@@H](C)O)[C@@H](C)CC)[C@@H](C)CC)[C@@H](C)O)C(=O)N[C@@H](CC(C)C)C(=O)N[C@@H](CCC(=O)O)C(=O)N[C@@H](CCCNC(=N)N)C(=O)N[C@H](C(N)=O)C(C)C) [SEQ ID NO: 143]
6 | 0.05 nM | 1.42 nM | IVLSLD[dV]PIKLK([AEEA-AEEA-γGlu-C18 diacid])QILLEQARQK[Aib]QREQAEKNKRILERV-NH2 (N-terminus assumed; SMILES CC[C@H](C)[C@H](N)C(=O)N[C@H](C(=O)N[C@@H](CC(C)C)C(=O)N[C@@H](CO)C(=O)N[C@@H](CC(C)C)C(=O)N[C@@H](CC(=O)O)C(=O)N[C@@H](C(=O)N1CCC[C@H]1C(=O)N[C@H](C(=O)N[C@@H](CCCCN)C(=O)N[C@@H](CC(C)C)C(=O)N[C@@H](CCCCNC(=O)COCCOCCNC(=O)COCCOCCNC(=O)CC[C@H](NC(=O)CCCCCCCCCCCCCCCCC(=O)O)C(=O)O)C(=O)N[C@@H](CCC(N)=O)C(=O)N[C@H](C(=O)N[C@@H](CC(C)C)C(=O)N[C@@H](CC(C)C)C(=O)N[C@@H](CCC(=O)O)C(=O)N[C@@H](CCC(N)=O)C(=O)N[C@@H](C)C(=O)N[C@@H](CCCNC(=N)N)C(=O)N[C@@H](CCC(N)=O)C(=O)N[C@@H](CCCCN)C(=O)NC(C)(C)C(=O)N[C@@H](CCC(N)=O)C(=O)N[C@@H](CCCNC(=N)N)C(=O)N[C@@H](CCC(=O)O)C(=O)N[C@@H](CCC(N)=O)C(=O)N[C@@H](C)C(=O)N[C@@H](CCC(=O)O)C(=O)N[C@@H](CCCCN)C(=O)N[C@@H](CC(N)=O)C(=O)N[C@@H](CCCCN)C(=O)N[C@@H](CCCNC(=N)N)C(=O)N[C@H](C(=O)N[C@@H](CC(C)C)C(=O)N[C@@H](CCC(=O)O)C(=O)N[C@@H](CCCNC(=N)N)C(=O)N[C@H](C(N)=O)C(C)C)[C@@H](C)CC)[C@@H](C)CC)[C@@H](C)CC)C(C)C)C(C)C) [SEQ ID NO: 142]
